Test results from patent publication EP0975354B1.

Assays:
[1] = target: LH receptor on bovine granulosa cells and small luteal cells (bovine) (UniProt Q28005); assay: cell-based or functional assay
[2] = target: GnRH receptor of rat pituitary membranes (rat) (UniProt P30969); assay: radioligand displacement on rat pituitary membranes, equimolar concentrations; reference native GnRH
UniProt P30969, sequence (P30969 whole entry): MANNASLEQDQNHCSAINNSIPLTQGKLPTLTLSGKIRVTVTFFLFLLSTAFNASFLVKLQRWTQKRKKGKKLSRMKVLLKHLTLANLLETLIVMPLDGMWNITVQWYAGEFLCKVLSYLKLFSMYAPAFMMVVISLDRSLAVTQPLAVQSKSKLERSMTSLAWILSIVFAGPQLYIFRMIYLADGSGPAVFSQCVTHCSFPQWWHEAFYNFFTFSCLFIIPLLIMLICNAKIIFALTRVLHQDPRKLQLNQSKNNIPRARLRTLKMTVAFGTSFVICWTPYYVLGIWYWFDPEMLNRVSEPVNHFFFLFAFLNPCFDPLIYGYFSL

UniProt Q28005, sequence (Q28005 27-701): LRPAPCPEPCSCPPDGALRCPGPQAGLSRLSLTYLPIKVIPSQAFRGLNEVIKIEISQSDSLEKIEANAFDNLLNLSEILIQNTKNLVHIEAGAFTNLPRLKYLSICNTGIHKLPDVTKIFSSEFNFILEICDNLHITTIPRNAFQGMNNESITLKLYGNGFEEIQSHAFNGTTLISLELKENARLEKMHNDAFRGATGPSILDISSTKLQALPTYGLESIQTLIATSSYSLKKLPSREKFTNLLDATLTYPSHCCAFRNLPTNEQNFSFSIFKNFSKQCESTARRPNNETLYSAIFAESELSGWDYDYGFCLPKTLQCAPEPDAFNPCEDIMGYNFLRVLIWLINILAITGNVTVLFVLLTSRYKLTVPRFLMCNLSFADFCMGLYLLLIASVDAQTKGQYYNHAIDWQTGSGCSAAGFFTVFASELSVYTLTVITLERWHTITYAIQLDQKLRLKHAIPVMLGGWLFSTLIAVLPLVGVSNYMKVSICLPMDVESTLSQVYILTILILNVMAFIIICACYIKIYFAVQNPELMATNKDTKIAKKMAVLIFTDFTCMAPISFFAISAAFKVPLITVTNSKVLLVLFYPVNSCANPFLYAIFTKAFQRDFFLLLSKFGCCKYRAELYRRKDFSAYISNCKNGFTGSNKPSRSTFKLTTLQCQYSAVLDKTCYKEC

Substance	killing of bovine granulosa cells (Trypan Blue exclusion) (fold of the cells killed by hecate alone) [1]	killing of bovine small luteal cells (Trypan Blue exclusion) (fold of the cells killed by hecate alone) [1]	displacement of radiolabelled GnRH as percent of the cpm displaced by native GnRH [2] [%]
hecate-bLH conjugate (peptide)	2	2	
D-Lys6GnRH (peptide)			187
